Measurements from PMC12718106.

Assays:
[1] = molecular target: recombinant Ara h 1 protein with N-terminal His-tag (peanut (Arachis hypogaea)); test: native gel or EMSA; native-PAGE of the purified allergen, nondenaturing; oligomeric state from the estimated molecular mass (Fig. S1)
[2] = molecular target: natural Ara h 1 protein (peanut (Arachis hypogaea)); test: as above

stoichiometry N [1] | stoichiometry N [2] | Substance
3 | – | recombinant Ara h 1 protein with N-terminal His-tag (natural protein)
– | 3 | natural Ara h 1 protein (natural protein)
